This note sets out measurements from patent publication US20140087995A1 (published 2014).

Numbered stars: 1 amine (or outer) side, 2 acyl side, 3 side chain; on linkers, the order of the positions; unused ones are H or OH. Bridge positions count the residues as written; N and C are the ends. Side chains are listed from the residue outwards. Ends that are not written are not given here. * marks the point of attachment. C20 diacid = O=C(O)CCCCCCCCCCCCCCCCCCC(=O)*; γGlu = O=C(O)[C@H](CCC(=O)[*:2])N[*:1]

Test [1] addresses T1, human calcitonin receptor (human, UniProt P30988 25-474).
T1 sequence (looked up): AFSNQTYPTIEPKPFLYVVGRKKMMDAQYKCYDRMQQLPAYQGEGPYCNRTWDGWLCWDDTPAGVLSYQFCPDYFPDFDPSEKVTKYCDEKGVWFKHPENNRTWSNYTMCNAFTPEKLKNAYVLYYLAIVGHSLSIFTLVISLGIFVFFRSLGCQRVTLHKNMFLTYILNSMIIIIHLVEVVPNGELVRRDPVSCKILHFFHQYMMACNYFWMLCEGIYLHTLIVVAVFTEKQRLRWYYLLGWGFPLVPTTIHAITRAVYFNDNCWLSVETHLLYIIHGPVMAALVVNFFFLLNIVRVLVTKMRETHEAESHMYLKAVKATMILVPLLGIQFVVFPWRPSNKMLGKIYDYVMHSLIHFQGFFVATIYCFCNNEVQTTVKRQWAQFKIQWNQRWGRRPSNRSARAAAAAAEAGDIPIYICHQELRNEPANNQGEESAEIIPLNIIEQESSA
The test can be described thus: cell-based or functional assay.

For test [2], the target named is T2, human amylin 3(a) receptor (human calcitonin receptor co-expressed with RAMP-3) (human, UniProt P30988 25-474; O60896 24-148, limits assumed).
T2 sequence (looked up) 1: T1 sequence (looked up)
T2 sequence (looked up) 2: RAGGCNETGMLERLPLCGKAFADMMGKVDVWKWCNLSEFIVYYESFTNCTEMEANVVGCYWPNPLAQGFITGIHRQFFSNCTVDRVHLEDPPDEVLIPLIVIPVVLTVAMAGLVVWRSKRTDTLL
Put plainly: cell-based or functional assay.

B1: N^ε1-[(4S)-4-carboxy-4-[[(4S)-4-carboxy-4-(19-carboxynonadecanoylamino)butanoyl]amino]butanoyl]-[Glu14,Arg17,Pro21,Pro27,Arg34]-h-amylin (peptide)
peptide: K([γGlu-γGlu-C20 diacid])CNTATCATQRLAEFLRHSSPNFGAIPSSTNVGRNTY-NH2
modifications: disulfide 2-7; N-terminus assumed
SMILES: CC[C@H](C)[C@H](NC(=O)[C@H](C)NC(=O)CNC(=O)[C@H](Cc1ccccc1)NC(=O)[C@H](CC(N)=O)NC(=O)[C@@H]1CCCN1C(=O)[C@H](CO)NC(=O)[C@H](CO)NC(=O)[C@H](Cc1c[nH]cn1)NC(=O)[C@H](CCCNC(=N)N)NC(=O)[C@H](CC(C)C)NC(=O)[C@H](Cc1ccccc1)NC(=O)[C@H](CCC(=O)O)NC(=O)[C@H](C)NC(=O)[C@H](CC(C)C)NC(=O)[C@H](CCCNC(=N)N)NC(=O)[C@H](CCC(N)=O)NC(=O)[C@@H](NC(=O)[C@H](C)NC(=O)[C@@H]1CSSC[C@H](NC(=O)[C@@H](N)CCCCNC(=O)CC[C@H](NC(=O)CC[C@H](NC(=O)CCCCCCCCCCCCCCCCCCC(=O)O)C(=O)O)C(=O)O)C(=O)N[C@@H](CC(N)=O)C(=O)N[C@@H]([C@@H](C)O)C(=O)N[C@@H](C)C(=O)N[C@@H]([C@@H](C)O)C(=O)N1)[C@@H](C)O)C(=O)N1CCC[C@H]1C(=O)N[C@@H](CO)C(=O)N[C@@H](CO)C(=O)N[C@H](C(=O)N[C@@H](CC(N)=O)C(=O)N[C@H](C(=O)NCC(=O)N[C@@H](CCCNC(=N)N)C(=O)N[C@@H](CC(N)=O)C(=O)N[C@H](C(=O)N[C@@H](Cc1ccc(O)cc1)C(N)=O)[C@@H](C)O)C(C)C)[C@@H](C)O
notes: also called compound 88
With B1, in test [1], the “Ratio hCT/hAmylin funct.” value amounted to 8.5 and the “hCTR funct. EC50” value amounted to 6.55 nM. The “hAmylin-R funct. EC50” value in test [2] came to 773 pM.

B2: N^ε1-[(4S)-4-carboxy-4-[[(4S)-4-carboxy-4-(19-carboxynonadecanoylamino)butanoyl]amino]butanoyl]-[His14,Arg17,Pro21,Pro27]-h-amylin (peptide)
peptide: K([γGlu-γGlu-C20 diacid])CNTATCATQRLAHFLRHSSPNFGAIPSSTNVGSNTY-NH2
modifications: disulfide 2-7; N-terminus assumed
SMILES: CC[C@H](C)[C@H](NC(=O)[C@H](C)NC(=O)CNC(=O)[C@H](Cc1ccccc1)NC(=O)[C@H](CC(N)=O)NC(=O)[C@@H]1CCCN1C(=O)[C@H](CO)NC(=O)[C@H](CO)NC(=O)[C@H](Cc1c[nH]cn1)NC(=O)[C@H](CCCNC(=N)N)NC(=O)[C@H](CC(C)C)NC(=O)[C@H](Cc1ccccc1)NC(=O)[C@H](Cc1c[nH]cn1)NC(=O)[C@H](C)NC(=O)[C@H](CC(C)C)NC(=O)[C@H](CCCNC(=N)N)NC(=O)[C@H](CCC(N)=O)NC(=O)[C@@H](NC(=O)[C@H](C)NC(=O)[C@@H]1CSSC[C@H](NC(=O)[C@@H](N)CCCCNC(=O)CC[C@H](NC(=O)CC[C@H](NC(=O)CCCCCCCCCCCCCCCCCCC(=O)O)C(=O)O)C(=O)O)C(=O)N[C@@H](CC(N)=O)C(=O)N[C@@H]([C@@H](C)O)C(=O)N[C@@H](C)C(=O)N[C@@H]([C@@H](C)O)C(=O)N1)[C@@H](C)O)C(=O)N1CCC[C@H]1C(=O)N[C@@H](CO)C(=O)N[C@@H](CO)C(=O)N[C@H](C(=O)N[C@@H](CC(N)=O)C(=O)N[C@H](C(=O)NCC(=O)N[C@@H](CO)C(=O)N[C@@H](CC(N)=O)C(=O)N[C@H](C(=O)N[C@@H](Cc1ccc(O)cc1)C(N)=O)[C@@H](C)O)C(C)C)[C@@H](C)O
notes: also called compound 92
For B2, in test [1], the “Ratio hCT/hAmylin funct.” value was determined as 28 and the “hCTR funct. EC50” value was 2.38 nM. For the same molecule, in test [2], the “hAmylin-R funct. EC50” value was 85 pM.

B3: N^ε1-[(4S)-4-carboxy-4-[[(4S)-4-carboxy-4-(19-carboxynonadecanoylamino)butanoyl]amino]butanoyl]-[Glu14,Arg17,Pro21,Pro27,Arg35]-h-amylin (peptide)
peptide: K([γGlu-γGlu-C20 diacid])CNTATCATQRLAEFLRHSSPNFGAIPSSTNVGSRTY-NH2
modifications: disulfide 2-7; N-terminus assumed
SMILES: CC[C@H](C)[C@H](NC(=O)[C@H](C)NC(=O)CNC(=O)[C@H](Cc1ccccc1)NC(=O)[C@H](CC(N)=O)NC(=O)[C@@H]1CCCN1C(=O)[C@H](CO)NC(=O)[C@H](CO)NC(=O)[C@H](Cc1c[nH]cn1)NC(=O)[C@H](CCCNC(=N)N)NC(=O)[C@H](CC(C)C)NC(=O)[C@H](Cc1ccccc1)NC(=O)[C@H](CCC(=O)O)NC(=O)[C@H](C)NC(=O)[C@H](CC(C)C)NC(=O)[C@H](CCCNC(=N)N)NC(=O)[C@H](CCC(N)=O)NC(=O)[C@@H](NC(=O)[C@H](C)NC(=O)[C@@H]1CSSC[C@H](NC(=O)[C@@H](N)CCCCNC(=O)CC[C@H](NC(=O)CC[C@H](NC(=O)CCCCCCCCCCCCCCCCCCC(=O)O)C(=O)O)C(=O)O)C(=O)N[C@@H](CC(N)=O)C(=O)N[C@@H]([C@@H](C)O)C(=O)N[C@@H](C)C(=O)N[C@@H]([C@@H](C)O)C(=O)N1)[C@@H](C)O)C(=O)N1CCC[C@H]1C(=O)N[C@@H](CO)C(=O)N[C@@H](CO)C(=O)N[C@H](C(=O)N[C@@H](CC(N)=O)C(=O)N[C@H](C(=O)NCC(=O)N[C@@H](CO)C(=O)N[C@@H](CCCNC(=N)N)C(=O)N[C@H](C(=O)N[C@@H](Cc1ccc(O)cc1)C(N)=O)[C@@H](C)O)C(C)C)[C@@H](C)O
notes: also called compound 89
Take B3: in test [1], the “Ratio hCT/hAmylin funct.” value amounted to 27.8 and the “hCTR funct. EC50” value came to 11.2 nM. In addition, the “hAmylin-R funct. EC50” value in test [2] is 404 pM.

B4: N^ε1-[(4S)-4-carboxy-4-[[(4S)-4-carboxy-4-(19-carboxynonadecanoylamino)butanoyl]amino]butanoyl]-[Glu14,Arg17,Pro21,Pro27,His34,Glu35]-h-amylin (peptide)
peptide: K([γGlu-γGlu-C20 diacid])CNTATCATQRLAEFLRHSSPNFGAIPSSTNVGHETY-NH2
modifications: disulfide 2-7; N-terminus assumed
SMILES: CC[C@H](C)[C@H](NC(=O)[C@H](C)NC(=O)CNC(=O)[C@H](Cc1ccccc1)NC(=O)[C@H](CC(N)=O)NC(=O)[C@@H]1CCCN1C(=O)[C@H](CO)NC(=O)[C@H](CO)NC(=O)[C@H](Cc1c[nH]cn1)NC(=O)[C@H](CCCNC(=N)N)NC(=O)[C@H](CC(C)C)NC(=O)[C@H](Cc1ccccc1)NC(=O)[C@H](CCC(=O)O)NC(=O)[C@H](C)NC(=O)[C@H](CC(C)C)NC(=O)[C@H](CCCNC(=N)N)NC(=O)[C@H](CCC(N)=O)NC(=O)[C@@H](NC(=O)[C@H](C)NC(=O)[C@@H]1CSSC[C@H](NC(=O)[C@@H](N)CCCCNC(=O)CC[C@H](NC(=O)CC[C@H](NC(=O)CCCCCCCCCCCCCCCCCCC(=O)O)C(=O)O)C(=O)O)C(=O)N[C@@H](CC(N)=O)C(=O)N[C@@H]([C@@H](C)O)C(=O)N[C@@H](C)C(=O)N[C@@H]([C@@H](C)O)C(=O)N1)[C@@H](C)O)C(=O)N1CCC[C@H]1C(=O)N[C@@H](CO)C(=O)N[C@@H](CO)C(=O)N[C@H](C(=O)N[C@@H](CC(N)=O)C(=O)N[C@H](C(=O)NCC(=O)N[C@@H](Cc1c[nH]cn1)C(=O)N[C@@H](CCC(=O)O)C(=O)N[C@H](C(=O)N[C@@H](Cc1ccc(O)cc1)C(N)=O)[C@@H](C)O)C(C)C)[C@@H](C)O
As to B4, in test [1], the “Ratio hCT/hAmylin funct.” value stood at 15.8 and the “hCTR funct. EC50” value turned out to be 7.05 nM. In test [2], the “hAmylin-R funct. EC50” value worked out at 445 pM.

B5: N^ε1-[(4S)-4-carboxy-4-[[(4S)-4-carboxy-4-(19-carboxynonadecanoylamino)butanoyl]amino]butanoyl]-[Glu14,Arg17,Pro21,Pro27,Pro34,Arg35]-h-amylin (peptide)
peptide: K([γGlu-γGlu-C20 diacid])CNTATCATQRLAEFLRHSSPNFGAIPSSTNVGPRTY-NH2
modifications: disulfide 2-7; N-terminus assumed
SMILES: CC[C@H](C)[C@H](NC(=O)[C@H](C)NC(=O)CNC(=O)[C@H](Cc1ccccc1)NC(=O)[C@H](CC(N)=O)NC(=O)[C@@H]1CCCN1C(=O)[C@H](CO)NC(=O)[C@H](CO)NC(=O)[C@H](Cc1c[nH]cn1)NC(=O)[C@H](CCCNC(=N)N)NC(=O)[C@H](CC(C)C)NC(=O)[C@H](Cc1ccccc1)NC(=O)[C@H](CCC(=O)O)NC(=O)[C@H](C)NC(=O)[C@H](CC(C)C)NC(=O)[C@H](CCCNC(=N)N)NC(=O)[C@H](CCC(N)=O)NC(=O)[C@@H](NC(=O)[C@H](C)NC(=O)[C@@H]1CSSC[C@H](NC(=O)[C@@H](N)CCCCNC(=O)CC[C@H](NC(=O)CC[C@H](NC(=O)CCCCCCCCCCCCCCCCCCC(=O)O)C(=O)O)C(=O)O)C(=O)N[C@@H](CC(N)=O)C(=O)N[C@@H]([C@@H](C)O)C(=O)N[C@@H](C)C(=O)N[C@@H]([C@@H](C)O)C(=O)N1)[C@@H](C)O)C(=O)N1CCC[C@H]1C(=O)N[C@@H](CO)C(=O)N[C@@H](CO)C(=O)N[C@H](C(=O)N[C@@H](CC(N)=O)C(=O)N[C@H](C(=O)NCC(=O)N1CCC[C@H]1C(=O)N[C@@H](CCCNC(=N)N)C(=O)N[C@H](C(=O)N[C@@H](Cc1ccc(O)cc1)C(N)=O)[C@@H](C)O)C(C)C)[C@@H](C)O
notes: also called compound 110
For B5, in test [1], the “Ratio hCT/hAmylin funct.” value was found to be 29.3 and the “hCTR funct. EC50” value was found to be 8.16 nM. Moreover, the “hAmylin-R funct. EC50” value in test [2] stood at 278 pM.

B6: N^-1-[(4S)-4-carboxy-4-(19-carboxynonadecanoylamino)butanoyl]-Gly[Arg1,His14,Arg17,Pro21,Pro27,His34]-h-amylin (peptide)
peptide: {C20 diacid-γGlu}-GRCNTATCATQRLAHFLRHSSPNFGAIPSSTNVGHNTY-NH2
modifications: disulfide 3-8
SMILES: CC[C@H](C)[C@H](NC(=O)[C@H](C)NC(=O)CNC(=O)[C@H](Cc1ccccc1)NC(=O)[C@H](CC(N)=O)NC(=O)[C@@H]1CCCN1C(=O)[C@H](CO)NC(=O)[C@H](CO)NC(=O)[C@H](Cc1c[nH]cn1)NC(=O)[C@H](CCCNC(=N)N)NC(=O)[C@H](CC(C)C)NC(=O)[C@H](Cc1ccccc1)NC(=O)[C@H](Cc1c[nH]cn1)NC(=O)[C@H](C)NC(=O)[C@H](CC(C)C)NC(=O)[C@H](CCCNC(=N)N)NC(=O)[C@H](CCC(N)=O)NC(=O)[C@@H](NC(=O)[C@H](C)NC(=O)[C@@H]1CSSC[C@H](NC(=O)[C@H](CCCNC(=N)N)NC(=O)CNC(=O)CC[C@H](NC(=O)CCCCCCCCCCCCCCCCCCC(=O)O)C(=O)O)C(=O)N[C@@H](CC(N)=O)C(=O)N[C@@H]([C@@H](C)O)C(=O)N[C@@H](C)C(=O)N[C@@H]([C@@H](C)O)C(=O)N1)[C@@H](C)O)C(=O)N1CCC[C@H]1C(=O)N[C@@H](CO)C(=O)N[C@@H](CO)C(=O)N[C@H](C(=O)N[C@@H](CC(N)=O)C(=O)N[C@H](C(=O)NCC(=O)N[C@@H](Cc1c[nH]cn1)C(=O)N[C@@H](CC(N)=O)C(=O)N[C@H](C(=O)N[C@@H](Cc1ccc(O)cc1)C(N)=O)[C@@H](C)O)C(C)C)[C@@H](C)O
notes: also called compound 100
Turning to B6, in test [1], the “Ratio hCT/hAmylin funct.” value stood at 6.8 and the “hCTR funct. EC50” value came to 1.73 nM. In test [2], the “hAmylin-R funct. EC50” value was 253 pM.
